# Reference: publication doi:10.1101/2022.05.10.491262
# T1: human alpha-2-macroglobulin, native state (nA2M) (human), P01023
# T1 chain: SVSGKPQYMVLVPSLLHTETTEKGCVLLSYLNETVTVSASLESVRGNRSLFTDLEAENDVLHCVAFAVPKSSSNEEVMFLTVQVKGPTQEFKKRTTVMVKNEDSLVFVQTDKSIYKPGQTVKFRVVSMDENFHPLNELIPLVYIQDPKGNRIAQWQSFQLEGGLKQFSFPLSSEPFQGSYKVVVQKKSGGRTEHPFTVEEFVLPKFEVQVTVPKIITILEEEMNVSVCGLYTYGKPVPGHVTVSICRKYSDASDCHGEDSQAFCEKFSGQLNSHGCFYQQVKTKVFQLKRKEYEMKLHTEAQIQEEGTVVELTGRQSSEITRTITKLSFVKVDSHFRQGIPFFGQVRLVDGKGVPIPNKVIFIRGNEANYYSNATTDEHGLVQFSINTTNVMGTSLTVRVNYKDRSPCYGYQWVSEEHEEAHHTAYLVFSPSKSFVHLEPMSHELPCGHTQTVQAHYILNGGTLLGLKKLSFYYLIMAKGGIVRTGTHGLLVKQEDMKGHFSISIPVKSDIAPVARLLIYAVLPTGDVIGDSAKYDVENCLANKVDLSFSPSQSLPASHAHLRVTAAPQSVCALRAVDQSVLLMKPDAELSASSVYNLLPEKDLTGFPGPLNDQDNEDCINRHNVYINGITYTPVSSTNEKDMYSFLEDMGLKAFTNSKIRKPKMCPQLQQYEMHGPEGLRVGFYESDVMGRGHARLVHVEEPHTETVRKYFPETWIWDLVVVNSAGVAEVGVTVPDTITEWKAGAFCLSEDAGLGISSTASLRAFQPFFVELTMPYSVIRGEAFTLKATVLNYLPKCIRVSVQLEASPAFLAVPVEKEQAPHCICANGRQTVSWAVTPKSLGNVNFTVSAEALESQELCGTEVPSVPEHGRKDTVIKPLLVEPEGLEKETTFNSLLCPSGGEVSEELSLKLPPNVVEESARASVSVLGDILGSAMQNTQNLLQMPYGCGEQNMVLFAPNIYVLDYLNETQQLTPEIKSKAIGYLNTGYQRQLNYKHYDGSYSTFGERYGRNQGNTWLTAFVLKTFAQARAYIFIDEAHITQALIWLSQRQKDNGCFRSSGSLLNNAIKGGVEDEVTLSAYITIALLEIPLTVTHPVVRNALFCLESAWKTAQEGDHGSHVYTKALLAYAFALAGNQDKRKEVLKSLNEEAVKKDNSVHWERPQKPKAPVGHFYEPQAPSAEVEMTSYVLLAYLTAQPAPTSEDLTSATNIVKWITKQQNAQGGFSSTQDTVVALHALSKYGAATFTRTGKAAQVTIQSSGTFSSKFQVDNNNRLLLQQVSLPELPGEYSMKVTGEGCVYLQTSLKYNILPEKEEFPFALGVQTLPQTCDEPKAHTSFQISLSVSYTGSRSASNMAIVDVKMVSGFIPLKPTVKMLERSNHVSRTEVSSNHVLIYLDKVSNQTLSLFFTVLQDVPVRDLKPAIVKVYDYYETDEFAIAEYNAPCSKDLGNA
# Biological target: T1, human alpha-2-macroglobulin, native …
# Assay: ITC
binder,measurement,value
"human trypsin, P35030 81-304 (enzyme, modifications not checked) IVGGYTCEENSLPYQVSLNSGSHFCGGSLISEQWVVSAAHCYKTRIQVRLGEHNIKVLEGNEQFINAAKIIRHPKYNRDTLDNDIMLIKLSSPAVINARVSTISLPTTPPAAGTECLISGWGNTLSFGADYPDELKCLDAPVLTQAECKASYPGKITNSMFCVGFLEGGKDSCQRDSGGPVVCNGQLQGVVSWGHGCAWKNRPGVYTKVYNYVDWIKDTIAANS",stoichiometry N (trypsin per hA2M),1.2
